Source: the RNAGym collection of RNA variant scans (doi:10.7554/elife.80360)

B1: CPEB3 Ribozyme (parent)
chain: GGGGGCCACAGCAGAAGCGUUCACGUCGCGGCCCCUGUCAGAUUCUGGUGAAUCUGCGAAUUCUGCUGU

Variants of: B1
Assay: self-cleavage, relative activity (ratio to wild type); higher = more cleavage; co-transcriptional

| Variant | self-cleavage |
| --- | --- |
| C9A A59G | 1.03 |
| C9A A59C | 0.854 |
| C9G C39U | 0.878 |
| C9G C39G | 0.981 |
| C9G C39A | 0.912 |
| C9G G28U | 0.104 |
| C9U A23C | 0.982 |
| C9U A23U | 1.01 |
| C9U A23G | 1.01 |
| C9G U55C | 0.877 |
| C9G U55G | 0.865 |
| C9G U62A | 0.977 |
| C9G U62G | 0.849 |
| C9G U62C | 0.96 |
| C9A G47U | 1.05 |
| C9A G47A | 1.03 |
| C9U G11C | 0.927 |
| C9U G11A | 0.971 |
| C9A U38C | 1.03 |
| C9U G19A | 0.249 |
| C9U G19U | 0.855 |
| C9A U53C | 0.997 |
| C9A U53A | 1.03 |
| C9A G58A | 1.02 |

| Variant | self-cleavage |
| --- | --- |
| C9G A10C | 0.634 |
| C9G A10G | 1 |
| C9G A10U | 0.987 |
| C9G G37U | 0.323 |
| C9A C63U | 0.985 |
| C9A A13U | 0.725 |
| C9A A13G | 0.901 |
| C9U A42C | 1.03 |
| C9U A42G | 0.96 |
| C9U A42U | 0.997 |
| C9U C45A | 1.01 |
| C9U C45U | 1.01 |
| A8U U38A | 0.871 |
| A8U U38G | 0.221 |
| A8U U38C | 1.01 |
| C9A C54G | 1.01 |
| C9A C54U | 1.03 |
| C9A C54A | 1 |
| C9G G19A | 0.106 |
| C9G A16G | 0.957 |
| C9G A16U | 0.887 |
| C9A A40U | 0.969 |
| C9A A40C | 0.71 |
| C9G U64A | 0.884 |

| Variant | self-cleavage |
| --- | --- |
| C9G U64C | 0.864 |
| C9U A40G | 1.03 |
| C9U A40U | 0.915 |
| C9G G25A | 0.216 |
| C9G G25C | 0.108 |
| C9G G25U | 0.207 |
| A8U U62C | 0.994 |
| C9G G17C | 0.176 |
| A8U U36A | 0.229 |
| A8U U36C | 0.887 |
| C9A C39A | 0.942 |
| C9A C39G | 1 |
| A8U G58U | 1.03 |
| A8U G58C | 0.988 |
| C9G U26C | 0.964 |
| C9G U26G | 0.93 |
| C9G U26A | 0.912 |
| C9G U21G | 0.696 |
| C9G U21A | 0.998 |
| C9G U21C | 0.943 |
| A8U U20A | 0.116 |
| A8U U20G | 0.163 |
| A8U U20C | 0.25 |
| C9G C24U | 0.9 |

| Variant | self-cleavage |
| --- | --- |
| C9G C24A | 0.872 |
| C9U C35U | 0.982 |
| C9U C35G | 0.76 |
| C9U C35A | 0.342 |
| C9G C29G | 0.695 |
| C9G C29U | 0.897 |
| C9G C29A | 0.84 |
| C9A U62A | 1.01 |
| C9A G25A | 0.264 |
| C9A G25U | 0.181 |
| C9U C24A | 0.827 |
| C9U C24G | 0.535 |
| C9U C24U | 0.888 |
| C9G U38A | 0.988 |
| C9G U38G | 0.343 |
| C9G G58C | 0.984 |
| C9G G58U | 1.04 |
| C9G U67C | 0.976 |
| C9G U67G | 1.05 |
| C9U C27A | 0.891 |
| C9U C27U | 0.788 |
| C9A C18U | 0.919 |
| C9A C18A | 0.188 |
| C9U C32G | 0.838 |

| Variant | self-cleavage |
| --- | --- |
| C9U C32A | 1.02 |
| C9G G68C | 0.997 |
| C9G G68U | 1.02 |
| C9G G68A | 1.05 |
| C9U G17A | 0.817 |
| A8U G47U | 0.999 |
| A8U G47A | 1.01 |
| A8U G47C | 1.03 |
| C9G U61C | 0.83 |
| C9G U61A | 1.01 |
| C9G C54U | 1.05 |
| C9G C54A | 0.931 |
| C9A C45U | 1.01 |
| C9A C45A | 1.02 |
| C9G C12G | 0.878 |
| C9G C12U | 1 |
| C9G C12A | 0.789 |
| A8U U53C | 0.901 |
| C9A U46C | 0.996 |
| C9A U46A | 1.02 |
| C9U A59G | 0.986 |
| C9G A59U | 0.936 |
| C9G A59G | 0.997 |
| C9A C66A | 0.905 |

| Variant | self-cleavage |
| --- | --- |
| C9A C66G | 0.923 |
| A8U U55G | 0.823 |
| A8U U55C | 0.912 |
| C9G G14C | 0.565 |
| C9G G14U | 0.756 |
| C9A A16U | 0.957 |
| C9G U36G | 0.245 |
| C9G U36C | 1.02 |
| C9G G31U | 0.97 |
| C9G G31C | 0.363 |
| C9A U43G | 0.876 |
| C9A U43A | 0.967 |
| C9A G19U | 0.609 |
| C9A G19C | 0.111 |
| C9A G19A | 0.129 |
| C9U C34A | 1.01 |
| C9U C34G | 1.01 |
| C9G A15C | 0.819 |
| C9G A23G | 0.976 |
| C9G A23U | 0.978 |
| C9A A42C | 0.999 |
| C9G C63A | 0.909 |
| C9G C63U | 0.973 |
| C9U C54A | 0.978 |

| Variant | self-cleavage |
| --- | --- |
| C9U C54G | 0.994 |
| C9U G14A | 0.878 |
| C9A C34U | 1.04 |
| C9A C34A | 1.01 |
| C9G C57G | 0.334 |
| C9G C57A | 0.402 |
| C9A C12G | 0.936 |
| C9A C12U | 1.02 |
| C9A A23G | 1.02 |
| C9A A23U | 1 |
| C9A C32U | 1.01 |
| C9A C57G | 0.366 |
| C9A C57U | 0.423 |
| C9A C57A | 0.37 |
| C9A G68C | 1.05 |
| C9A G68U | 1.04 |
| C9A G68A | 1.04 |
| C9U C66U | 1.05 |
| C9U C66A | 0.968 |
| C9U C29G | 0.923 |
| C9U C29A | 0.922 |
| C9G C33U | 1.04 |
| C9G C33G | 0.925 |
